Reference: the Immune Epitope Database (IEDB)

Experiments:
HLA-B*07:02 [1] = assay: IEDB peptide-MHC binding, purified MHC/competitive/radioactivity; filed as Kd, often an IC50 or EC50 that approximates it; ≥ and ≤ were set here for values at or beyond the usual limits of such assays
HLA-B*51:01 = assay: as above
HLA-B*53:01 = assay: as above
HLA-B*35:01 = assay: as above
HLA-B*54:01 = assay: as above
HLA-A*03:01 = assay: IEDB peptide-MHC binding, purified MHC/direct/fluorescence; filed as Kd, often an IC50 or EC50 that approximates it; ≥ and ≤ were set here for values at or beyond the usual limits of such assays; details: source organism: Salmonella enterica
HLA-A*69:01 = assay: as above; details: source organism: Salmonella enterica subsp. enterica serovar Typhi
HLA-A*01:01 = assay: as above; details: source organism: Salmonella enterica subsp. enterica serovar Typhi
HLA-B*07:02 [2] = assay: as above; details: source organism: Salmonella enterica
HLA-A*24:03 = assay: as above; details: source organism: Salmonella enterica
HLA-B*40:01 = assay: as above; details: source organism: Salmonella enterica
HLA-B*27:05 = assay: as above; details: source organism: Salmonella enterica
HLA-B*44:02 = assay: as above; details: source organism: Salmonella enterica
HLA-A*11:01 [3] = assay: as above; details: source organism: Salmonella enterica
HLA-A*02:01 = assay: as above; details: source organism: Salmonella enterica
HLA-A*26:01 = assay: as above; details: source organism: Salmonella enterica
HLA-B*15:01 = assay: as above; details: source organism: Salmonella enterica
HLA-B*58:01 = assay: as above; details: source organism: Salmonella enterica
HLA-B*08:01 = assay: as above; details: source organism: Salmonella enterica
HLA-A*31:01 = assay: as above; details: source organism: Salmonella enterica
HLA-A*11:01 [4] = assay: IEDB peptide-MHC binding, purified MHC/competitive/fluorescence; ≥ and ≤ were set here for values at or beyond the usual limits of such assays
HLA-A*24:02 = assay: as above; details: source organism: Vaccinia virus
[5] = source organism: Triticum aestivum
[6] = source organism: Vaccinia virus WR
[7] = source organism: Dengue virus 3 Martinique/1243/1999
[8] = source organism: SARS coronavirus Tor2
[9] = source organism: Mammarenavirus lassaense

For LPAMCNVYI, the Kd (HLA-B*07:02 [1]; [5]) was 685 nM, the Kd (HLA-B*51:01; [5]) was 272 nM and the Kd (HLA-B*53:01; [5]) was 18.2 nM. For the same sequence, the Kd (HLA-B*35:01; [5]) was 1100 nM and the Kd (HLA-B*54:01; [5]) was 182 nM.

Sequence SPEGEETII has a Kd (HLA-B*07:02 [1]; [6]) of 11100 nM, a Kd (HLA-B*51:01; [6]) of 15900 nM and a Kd (HLA-B*53:01; [6]) of 270 nM. For the same sequence, the Kd (HLA-B*35:01; [6]) was no less than 40600 nM and the Kd (HLA-B*54:01; [6]) was no less than 78100 nM.

KPVSDLYTSM was tested, and the Kd (HLA-B*07:02 [1]; [6]) was 0.297 nM, the Kd (HLA-B*51:01; [6]) was no less than 69600 nM and the Kd (HLA-B*53:01; [6]) was 56.6 nM. The Kd (HLA-B*35:01; [6]) was 34.9 nM and the Kd (HLA-B*54:01; [6]) was 10700 nM.

With QTDDGVRFT the Kd (HLA-A*03:01) was no less than 20000 nM, the Kd (HLA-A*69:01) was 70.3 nM and the Kd (HLA-A*01:01) was 19800 nM. The Kd (HLA-B*07:02 [2]) was no less than 20000 nM, the Kd (HLA-A*24:03) was no less than 20000 nM and the Kd (HLA-B*40:01) was no less than 20000 nM. For the same sequence, the Kd (HLA-B*27:05) was no less than 20000 nM, the Kd (HLA-B*44:02) was no less than 20000 nM and the Kd (HLA-A*11:01 [3]) was no less than 20000 nM. It also gave a Kd (HLA-A*02:01) of no less than 20000 nM, a Kd (HLA-A*26:01) of no less than 20000 nM and a Kd (HLA-B*15:01) of no less than 20000 nM. The Kd (HLA-B*58:01) was no less than 20000 nM, the Kd (HLA-B*08:01) was no less than 20000 nM and the Kd (HLA-A*31:01) was no less than 20000 nM.

For TNTTTEDHK, the IC50 (HLA-A*11:01 [4]; source organism: Zaire ebolavirus) was no less than 110000 nM.

In the case of MPVTAASAAQ, the Kd (HLA-B*51:01; [7]) is reported as no less than 20500 nM and the Kd (HLA-B*35:01; [7]) is reported as 1590 nM.

Work on MPNMLRIMA yielded a Kd (HLA-B*07:02 [1]; [8]) of 9.8 nM, a Kd (HLA-B*51:01; [8]) of 393 nM and a Kd (HLA-B*53:01; [8]) of 27 nM. It also gave a Kd (HLA-B*35:01; [8]) of 11.7 nM and a Kd (HLA-B*54:01; [8]) of 0.256 nM.

Work on FPAIFSAEV yielded a Kd (HLA-B*07:02 [1]; [9]) of 65.3 nM, a Kd (HLA-B*51:01; [9]) of 85.6 nM and a Kd (HLA-B*53:01; [9]) of 40.4 nM. The Kd (HLA-B*35:01; [9]) was 16.8 nM and the Kd (HLA-B*54:01; [9]) was 6.94 nM.

Sequence LPESDLDKVY has a Kd (HLA-B*07:02 [1]; [6]) of no less than 69600 nM, a Kd (HLA-B*51:01; [6]) of no less than 54100 nM and a Kd (HLA-B*53:01; [6]) of 513 nM. For the same sequence, the Kd (HLA-B*35:01; [6]) was 79 nM and the Kd (HLA-B*54:01; [6]) was 10600 nM.

Sequence YPSMFTLRHI has a Kd (HLA-B*07:02 [1]; [6]) of 15.5 nM, a Kd (HLA-B*51:01; [6]) of 2.58 nM and a Kd (HLA-B*53:01; [6]) of 0.943 nM. For the same sequence, the Kd (HLA-B*35:01; [6]) was 446 nM and the Kd (HLA-B*54:01; [6]) was 20.8 nM.

In the case of EKSSKYYIK, the IC50 (HLA-A*11:01 [4]; source organism: Vaccinia virus) is reported as no less than 79000 nM and the IC50 (HLA-A*24:02) is reported as no less than 145000 nM.

In the case of QPYLQLQPFL, the Kd (HLA-B*07:02 [1]; [5]) is reported as 632 nM, the Kd (HLA-B*51:01; [5]) is reported as 150 nM and the Kd (HLA-B*53:01; [5]) is reported as no less than 22000 nM. It also gave a Kd (HLA-B*35:01; [5]) of 369 nM and a Kd (HLA-B*54:01; [5]) of no less than 23400 nM.

LPYPQPQL was tested, and the Kd (HLA-B*07:02 [1]; [5]) was 109 nM, the Kd (HLA-B*51:01; [5]) was 32.3 nM and the Kd (HLA-B*53:01; [5]) was 14900 nM. It also gave a Kd (HLA-B*35:01; [5]) of 10600 nM and a Kd (HLA-B*54:01; [5]) of 1390 nM.
